The target in one test is C1q (Homo sapiens (Human), UniProt P02745 23-245; P02746 28-253; P02747 29-245). The test can be described thus: BIAcore per table head; method for C1q not described. (In general: In SPR one partner is held on a chip, and binding of the other changes the refractive index at the surface.)
The next test has as its target T1, human FcγRIIA (human, UniProt P12318 36-218).
T1 construct: also called FcgRIIa
T1 sequence (looked up): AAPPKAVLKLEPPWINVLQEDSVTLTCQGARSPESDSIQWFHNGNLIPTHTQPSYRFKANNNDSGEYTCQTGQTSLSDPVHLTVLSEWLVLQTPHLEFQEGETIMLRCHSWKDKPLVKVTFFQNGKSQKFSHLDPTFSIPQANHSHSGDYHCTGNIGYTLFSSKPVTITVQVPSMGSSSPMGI
Briefly: SPR, antibody immobilised, receptor injected, steady-state fit (table head: BIAcore; paragraph 688: ProteOn XPR36). As for the experimental part:
(§1) The binding constants (KD) for the binding of anti-HER2 bispecific antibodies to human FcγRs were measured on a ProteOn XPR36 instrument. Briefly, the bispecific antibodies were immobilized at high density on a GLC sensor chip using a standard amino coupling chemistry as outlined by the instrument manufacturer. The final surface density of IgG measured approximately 3000 RU. A reference flow cell was also prepared on this sensor chip using the identical immobilization protocol minus protein. […] Each concentration of FcγR was injected over both the bispecific antibody and reference cell surfaces at a flow rate of 25 μL/min for 8 min, during which binding data were collected. Between injections, the surfaces were regenerated (i.e., bound FcγR was removed) with a 60-sec pulse of 5 mM HCl. Several buffer injections were also interspersed throughout the injection series. Later, one of these buffer injections along with the reference cell data was used to correct the binding data for any injection artifacts (e.g., nonspecific binding) through a technique commonly referred to as “double-referencing” (Myszka, 1999). After all binding data were collected, individual data sets were averaged for binding (Response at equilibrium [Req]) at each concentration (C), and then fit to a 1:1 binding isotherm (Req vs. C) plot.

Another test addresses T2, human FcγRI (human, UniProt P12314 16-288).
T2 construct: also called FcgRI
Described as above. As for the experimental part: as §1

The next test deals with T3, human FcγRIIb (human, UniProt P31994 43-217).
T3 construct: also called FcgRIIb
T3 sequence (looked up): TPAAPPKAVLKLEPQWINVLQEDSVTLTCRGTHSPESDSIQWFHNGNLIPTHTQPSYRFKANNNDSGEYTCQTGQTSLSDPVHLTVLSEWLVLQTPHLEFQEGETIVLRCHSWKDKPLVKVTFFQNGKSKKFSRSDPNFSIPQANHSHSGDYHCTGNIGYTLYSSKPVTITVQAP
The description is as above. As to the method: as §1

The target of another test is T4, human FcγRIIIA-158F (human, UniProt P08637 17-208).
T4 construct: also called FcgRIIIa (158F)
T4 sequence (P08637 17-208 limits assumed): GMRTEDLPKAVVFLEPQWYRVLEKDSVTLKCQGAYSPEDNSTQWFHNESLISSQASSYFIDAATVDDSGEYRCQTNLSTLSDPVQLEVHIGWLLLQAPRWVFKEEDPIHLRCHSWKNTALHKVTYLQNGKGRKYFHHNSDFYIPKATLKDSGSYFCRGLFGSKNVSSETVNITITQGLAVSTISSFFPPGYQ
The description is as above. As for the experimental part:
as §1

Test [1] addresses T5, human HER4 recombinant extracellular domain protein (human, UniProt Q15303 26-651).
T5 construct: extracellular domain
T5 sequence (looked up): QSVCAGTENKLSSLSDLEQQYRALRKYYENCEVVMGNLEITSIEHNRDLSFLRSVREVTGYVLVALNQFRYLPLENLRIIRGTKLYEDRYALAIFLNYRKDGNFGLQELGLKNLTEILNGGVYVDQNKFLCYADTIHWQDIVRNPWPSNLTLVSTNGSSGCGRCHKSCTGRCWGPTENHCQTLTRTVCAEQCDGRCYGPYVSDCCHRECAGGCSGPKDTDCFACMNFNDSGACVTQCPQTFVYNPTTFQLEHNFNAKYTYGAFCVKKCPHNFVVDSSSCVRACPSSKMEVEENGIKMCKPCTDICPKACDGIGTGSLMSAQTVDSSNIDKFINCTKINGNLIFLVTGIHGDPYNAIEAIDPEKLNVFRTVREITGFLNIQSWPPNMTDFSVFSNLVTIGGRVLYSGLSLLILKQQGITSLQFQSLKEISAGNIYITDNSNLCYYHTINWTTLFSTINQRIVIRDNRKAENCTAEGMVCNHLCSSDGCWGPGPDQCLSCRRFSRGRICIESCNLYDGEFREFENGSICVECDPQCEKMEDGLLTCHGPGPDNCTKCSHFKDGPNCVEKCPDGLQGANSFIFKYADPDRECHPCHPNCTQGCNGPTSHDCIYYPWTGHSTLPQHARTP
Briefly: capture ELISA as in Example 1. As for the experimental part: (§2) Antibody to be tested was prepared by diluting in a stepwise 1:3 serial dilution ranging from 50 nM down to 0.28 pM and then added to the wells in duplicate. After one hour of incubation, plates were washed, and goat anti-human IgG Fab HRP-conjugated secondary antibody was added to each well and the plates were incubated for 1 hour. The plates were washed and TMB substrate was added and incubated for 5-20 min to allow color development. The stop solution was added to the wells at the end of reaction and the plates were read at 450 nm. Binding signal (absorbance at 450 nm) was plotted against antibody concentration using Prism software.

Test [2] addresses T6, human EGFR recombinant extracellular domain protein (human, UniProt P00533 25-645).
T6 construct: extracellular domain
Briefly: capture ELISA as in Example 1. As to the method:
as §2

The target of test [3] is T7, human HER3 recombinant extracellular domain protein (human, UniProt P21860 20-643).
T7 construct: extracellular domain
The test can be described thus: capture ELISA as in Example 1. As to the method:
as §2
(In general: In an ELISA, binding on a coated surface is turned into a signal by an enzyme label.)

In another test the target is T8, human FcγRIIIA-158V (human, UniProt P08637 17-208).
T8 construct: also called FcgRIIIa (158V); hFcgRIIIA-158V
T8 sequence (P08637 17-208 F176V limits assumed): as the sequence (P08637 17-208 limits assumed) above, with F160V counted along it
The test can be described thus: SPR, antibody immobilised, receptor injected, steady-state fit (table head: BIAcore; paragraph 688: ProteOn XPR36). As to the method:
as §1

Consider four molecules from patent US20170291955A1 (AstraZeneca / MedImmune, published 2017).

T2 sequence (P12314 16-288 limits assumed): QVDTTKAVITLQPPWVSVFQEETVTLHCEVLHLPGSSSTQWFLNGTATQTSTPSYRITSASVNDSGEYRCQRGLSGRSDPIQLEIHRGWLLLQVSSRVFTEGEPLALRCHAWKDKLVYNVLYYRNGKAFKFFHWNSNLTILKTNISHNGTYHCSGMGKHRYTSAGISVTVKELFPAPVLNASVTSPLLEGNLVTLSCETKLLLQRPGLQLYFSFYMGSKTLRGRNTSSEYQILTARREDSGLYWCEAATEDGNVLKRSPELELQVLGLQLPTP
C1q, sequence (P02745 23-245 limits assumed, chain 1 of 3): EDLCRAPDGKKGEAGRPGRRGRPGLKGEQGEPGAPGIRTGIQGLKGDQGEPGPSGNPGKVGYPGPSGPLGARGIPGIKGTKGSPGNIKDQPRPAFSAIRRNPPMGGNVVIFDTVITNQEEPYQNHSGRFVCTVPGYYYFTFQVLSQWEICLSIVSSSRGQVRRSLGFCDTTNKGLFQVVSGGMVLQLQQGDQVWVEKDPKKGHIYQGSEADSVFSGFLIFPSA
C1q, sequence (P02746 28-253 limits assumed, chain 2 of 3): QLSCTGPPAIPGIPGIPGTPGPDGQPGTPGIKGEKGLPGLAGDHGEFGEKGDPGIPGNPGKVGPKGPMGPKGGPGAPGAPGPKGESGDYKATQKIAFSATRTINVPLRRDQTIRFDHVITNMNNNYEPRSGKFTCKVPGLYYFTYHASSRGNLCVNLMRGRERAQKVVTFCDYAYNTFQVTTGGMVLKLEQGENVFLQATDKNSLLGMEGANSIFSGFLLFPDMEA
C1q, sequence (P02747 29-245 limits assumed, chain 3 of 3): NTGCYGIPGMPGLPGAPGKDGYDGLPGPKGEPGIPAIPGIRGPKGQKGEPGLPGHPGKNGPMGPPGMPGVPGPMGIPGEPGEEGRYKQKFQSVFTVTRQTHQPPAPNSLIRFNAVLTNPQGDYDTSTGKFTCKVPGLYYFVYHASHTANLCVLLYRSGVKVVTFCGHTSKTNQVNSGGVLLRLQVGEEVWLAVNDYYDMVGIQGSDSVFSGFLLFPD

B1: Bs2Ab-39SH (bispecific antibody, human IgG1, kappa)
heavy: not shown
light: DIVMTQTPLSLSVTPGQPASISCKSSQSVFFRSNNKNILAWYLQKPGQPPQLLIYWASSRESGVPDRFSGSGSGTDFTLKISRVEAEDVGVYYCQQYFGSPFTFGPGTKVDIKRTVAAPSVFIFPPSDEQLKSGTASVVCLLNNFYPREAKVQWKVDNALQSGNSQESVTEQDSKDSTYSLSSTLTLSKADYEKHKVYACEVTHQGLSSPVTKSFNRGEC
A word on the Kd: it is the free concentration of one partner at which half of the binding sites on the other are occupied at equilibrium, for simple one-to-one binding. High values mean weaker binding, low ones tighter binding. As for B1, the Kd with C1q came to 75.6 nM; in the test with human FcγRIIA it was 1300 nM; in the test with human FcγRI it was 7 nM; in the test with human FcγRIIb, 2750 nM; with human FcγRIIIA-158F, 1990 nM. Besides, the binding result in test [1], in [2] and in [3] was “no binding” throughout.

B2: Bs4Ab-39SH_aFuc (bispecific antibody)
heavy: not shown
light: DIVMTQTPLSLSVTPGQPASISCKSSQSVFFRSNNKNILAWYLQKPGQPPQLLIYWASSRESGVPDRFSGSGSGTDFTLKISRVEAEDVGVYYCQQYFGSPFTFGPGTKVDIKRTVAAPSVFIFPPSDEQLKSGTASVVCLLNNFYPREAKVQWKVDNALQSGNSQESVTEQDSKDSTYSLSSTLTLSKADYEKHKVYACEVTHQGLSSPVTKSFNRGEC
notes: also called afucosylated Bs4Ab-39SH; homogenously afucosylated Bs4Ab-39SH
For the molecule B2, the dissociation constant Kd in the test with C1q came out at 446 nM; in the test with human FcγRIIA, 1260 nM; in the test with human FcγRI, 0.98 nM; in the test with human FcγRIIb it was 2560 nM; with human FcγRIIIA-158V, 45 nM; with human FcγRIIIA-158F it was 223 nM.

B3: Bs2Ab-39SH_aFuc (bispecific antibody, human IgG1, kappa)
heavy: not shown
light: DIVMTQTPLSLSVTPGQPASISCKSSQSVFFRSNNKNILAWYLQKPGQPPQLLIYWASSRESGVPDRFSGSGSGTDFTLKISRVEAEDVGVYYCQQYFGSPFTFGPGTKVDIKRTVAAPSVFIFPPSDEQLKSGTASVVCLLNNFYPREAKVQWKVDNALQSGNSQESVTEQDSKDSTYSLSSTLTLSKADYEKHKVYACEVTHQGLSSPVTKSFNRGEC
notes: also called afucosylated Bs2Ab-39SH; homogenously afucosylated Bs2Ab-39SH
With B3, the Kd with C1q worked out at 130 nM; with human FcγRIIA, 1250 nM; with human FcγRI it was 0.98 nM; with human FcγRIIb, 2400 nM; with human FcγRIIIA-158V, 40 nM; with human FcγRIIIA-158F, 216 nM.

B4: Bs4Ab-39SH (bispecific antibody)
heavy: not shown
light: DIVMTQTPLSLSVTPGQPASISCKSSQSVFFRSNNKNILAWYLQKPGQPPQLLIYWASSRESGVPDRFSGSGSGTDFTLKISRVEAEDVGVYYCQQYFGSPFTFGPGTKVDIKRTVAAPSVFIFPPSDEQLKSGTASVVCLLNNFYPREAKVQWKVDNALQSGNSQESVTEQDSKDSTYSLSSTLTLSKADYEKHKVYACEVTHQGLSSPVTKSFNRGEC
Regarding B4, the Kd was found to be 88.6 nM with C1q; 1190 nM in the test with human FcγRIIA; 13 nM with human FcγRI; 2790 nM with human FcγRIIb; 1780 nM in the test with human FcγRIIIA-158F. In addition, the binding result in test [1], in test [2] and in [3] was “no binding” in each case.
